Assays:
Test in all cases: IEDB peptide-MHC binding, purified MHC/competitive/radioactivity; filed as Kd, often an IC50 or EC50 that approximates it; ≥ and ≤ were set here for values at or beyond the usual limits of such assays
Settings in all cases: source organism: Plasmodium falciparum 3D7
HLA-A*23:01 = biological target: HLA-A*23:01
HLA-A*29:02 = biological target: HLA-A*29:02
HLA-A*30:02 = biological target: HLA-A*30:02
HLA-A*24:02 = biological target: HLA-A*24:02
HLA-A*03:01 = biological target: HLA-A*03:01
HLA-A*11:01 = biological target: HLA-A*11:01
HLA-A*31:01 = biological target: HLA-A*31:01
HLA-A*33:01 = biological target: HLA-A*33:01
HLA-A*68:01 = biological target: HLA-A*68:01
HLA-A*01:01 = biological target: HLA-A*01:01
HLA-A*26:01 = biological target: HLA-A*26:01

Sequence	Kd (HLA-A*23:01) [nM]	Kd (HLA-A*29:02) [nM]	Kd (HLA-A*30:02) [nM]	Kd (HLA-A*24:02) [nM]	Kd (HLA-A*03:01) [nM]	Kd (HLA-A*11:01) [nM]	Kd (HLA-A*31:01) [nM]	Kd (HLA-A*33:01) [nM]	Kd (HLA-A*68:01) [nM]	Kd (HLA-A*01:01) [nM]	Kd (HLA-A*26:01) [nM]
IYYFDGNSW	6.1	3100	3020								
NFINFIKVL	1040	≥ 10000	≥ 10000	≥ 10000							
ALERLLSLKK					147	822	≥ 10000	≥ 10000	≥ 10000		
YQNFQNADK					2710	177	≥ 10000	≥ 10000	≥ 10000		
YLINKHWQR					1030	676	4.4	7.7	3.7		
TFLESSFDIK					≥ 10000	2510	≥ 10000	≥ 10000	≥ 10000		
SSFDIKSEVK					1900	19	≥ 10000	≥ 10000	31		
SQDLACIFDA					≥ 10000	≥ 10000	≥ 10000	≥ 10000	≥ 10000		
FISFYLINK					19	9	2190	1460	18		
MFVPKYFEL	11	2560	8560	266							
PVVCSMEYK					1940	80	≥ 10000	≥ 10000	414		
IIALLIIPPK					30	5.3	≥ 10000	8430	82		
IFLRFIPDK					2440	1280	1640	1310	≥ 10000		
SYKSSKRDKF	797	≥ 10000	88	256							
KSMLKELIK					189	151	450	≥ 10000	≥ 10000		
NVDQQNDMY		≥ 10000	≥ 10000							47	≥ 10000
SQVSNSDSYK					1660	83	≥ 10000	≥ 10000	1380		
VYYNILIVL	52	≥ 10000	1130	265							
HLNIPIGFK					2.3	1.3	183		2.8		
GTMYILLKK					2.2	1.2	29	8450	3.1		
TYGIIVPVL	41	≥ 10000	1520	248							
VYRHCEYIL	64	≥ 10000	3330	2200							
ELFDKDTFFK					144		3680	13	3.6		

Sequence	Kd (HLA-A*23:01) [nM]	Kd (HLA-A*29:02) [nM]	Kd (HLA-A*30:02) [nM]	Kd (HLA-A*24:02) [nM]	Kd (HLA-A*03:01) [nM]	Kd (HLA-A*11:01) [nM]	Kd (HLA-A*31:01) [nM]	Kd (HLA-A*33:01) [nM]	Kd (HLA-A*68:01) [nM]	Kd (HLA-A*01:01) [nM]	Kd (HLA-A*26:01) [nM]
KILIKIPVTK						60	1660	≥ 10000	≥ 10000		
QAAESNERY		≥ 10000	3010							353	142
LIENELMNY		3940	161							412	228
SSFFMNRFY		36	7.5							239	166
AVSEIQNNK					25	11	1430	≥ 10000	14		
KYEALIKLL	484	≥ 10000	≥ 10000	2860							
ALKISQLQK					15	96	3200	≥ 10000	≥ 10000		
LFDKDTFFK					931	167	5710	1190	101		
RMTSLKNEL		≥ 10000	14	≥ 10000							
FQAAESNERY		1780	372							8960	3510
ELEASISGKY		≥ 10000	463							142	23
PVLTSLFNK					1950	25	5110	≥ 10000	≥ 10000		
ALERLLSLK					233	369	3430	≥ 10000	≥ 10000		
YLFNQHIKK					14	7.8	4920	7970	14		
QEEQKKYIY		≥ 10000	≥ 10000							≥ 10000	≥ 10000
AFLESQSMNK					3060	1090	9890	≥ 10000	≥ 10000		
NIFLRFIPDK					≥ 10000	2120	≥ 10000	1090	1530		
KFNILSSPL	1760	≥ 10000	1280	1730							
TTRYKYLNK					117	848	416	652	2560		
FSYDLRLNK					29	4.9	461	1260	15		
DFFLKSKFNI	304	≥ 10000	2610	1650							
RLPLLPKTWK					11		340	≥ 10000	2890		
RYQDPQNYEL	124	≥ 10000	84								

Sequence	Kd (HLA-A*23:01) [nM]	Kd (HLA-A*29:02) [nM]	Kd (HLA-A*30:02) [nM]	Kd (HLA-A*24:02) [nM]	Kd (HLA-A*03:01) [nM]	Kd (HLA-A*11:01) [nM]	Kd (HLA-A*31:01) [nM]	Kd (HLA-A*33:01) [nM]	Kd (HLA-A*68:01) [nM]	Kd (HLA-A*01:01) [nM]	Kd (HLA-A*26:01) [nM]
LNEQLIYTY		2400	4130							≥ 10000	6210
LEASISGKY		≥ 10000	87							≥ 10000	3950
SFFMNRFYI	11	200	1020	172							
TYKKKNNHI	81	≥ 10000		30							
LYYLFNQHI	1.4	≥ 10000	≥ 10000	33							
ILCIEGEQK					1400	641	7530	≥ 10000	526		
VVCSMEYKK					443	54	891	≥ 10000	167		
IFISFYLINK					1990	1060	462	394	363		
MQSSFFMNR						1.1	29	75	3.8		
SSPLFNNFYK					100	0.74	1610	1730	6.3		
FVSSIFISFY		22	84							118	11
SSPLFNNFY			41							117	17
EQRLPLLPK					1090	765	423	987	1910		
LQMMNVNLQK					25	7.2	435	1110	320		
LTNHLINTPK					11	5.9	62	373	10		
SISGKYDIK					2090	50	≥ 10000	≥ 10000	1740		
IALLIIPPK					1240	108	2930	1400	1960		
YYNNFNNNY	126		58								
VSSIFISFY		1800	55							144	1640
QQNQESKIMK					3470	77	≥ 10000	≥ 10000	≥ 10000		
KINSNFLLK					17	6.4	68	≥ 10000	2740		
QNADKNFLY		24	663							3810	166
NHEQKLSEY		≥ 10000	≥ 10000							≥ 10000	≥ 10000

Reference: the Immune Epitope Database (IEDB)
